{"source": "patent US20250304916A1", "about": "“METHODS AND COMPOSITIONS FOR GENERATING VASCULAR LEPTOMENINGEAL CELLS” (Trailhead Biosystems Inc., priority 2024, published 2025)", "test_system": "MBP expression", "assay": "HD-DoE 8-factor model (stage 4), optimized for maximum expression of MBP", "assay_type": "cell-based, human", "settings": "model optimized for MBP at 274; FIG. 6"}
{"molecule": "NT-3: neurotrophin-3, a Trk C pathway agonist (protein, UniProt P20783 139-257, looked up) Neurotrophin-3: YAEHKSHRGEYSVCDSESLWVTDKSSAIDIRGHQVTVLGEIKTGNSPVKQYFYETRCKEARPVKNGCRGIDDKHWNSQCKTSQTYVRALTSENNKLVGWRWIRIDTSCVCALSRKIGRT", "values": [{"measurement": "factor contribution, positive impact on MBP expression", "result": 12.1}]}
